Test system: MS2 coat protein
Assay: apparent KD of MS2 coat protein; higher = weaker reporter binding
Conditions: Eterna round: R107
Method: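 RNA-MaP round R107: designed RNA switches with theophylline, tryptophan, arginine or FMN aptamers are transcribed on-chip within common flanks. They are titrated with SNAP-549-labelled MS2 coat protein in RNA-MaP buffer (100 mM Tris pH 7.5, 80 mM KCl, 4 mM MgCl2), without ligand or with the indicated ligand. Median apparent KD per design.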

[1] = input ligand: theophylline 20 uM
[2] = input ligand: tryptophan 2.4 mM
[3] = input ligand: theophylline 2 mM

Sequence | apparent KD of MS2 coat protein (input ligand: arginine 13.2 mM) | apparent KD of MS2 coat protein [1] | apparent KD of MS2 coat protein [2] | apparent KD of MS2 coat protein (input ligand: none) | apparent KD of MS2 coat protein [3]
AUACGGCGGUAAAAUCAGAGAGUAAAAGAUACCAGCAAUAAUAAAUGCCCUUGGCAGCUUCUGACAUGAGGAUCACCCAUGUAAA [theeternabot_exclusion_MS2_Theo_A_49] | 15.7 nM | 18 nM | 15 nM |  | 
AUAACAUGAGGAUCACCCAUGUAGAGUGAUACCAGACUACGUAAUGUCCCUUGGCAGCACAAGUAAAGUUACGAAUAAUGAUAGA [JR_SSTheophyA_Sub002] | 113 nM | 146 nM | 137 nM |  | 
GCGGGACUUUCGGCCGCCACUGAGAGAGUCGUGUGAACAUGAGGAUCACCCAUGUAAUAUAUAUACAGGACCGGGAGGGUUGCGC [4.Q] | 5.64 nM | 17.2 nM | 12.8 nM | 13.4 nM | 14.7 nM
UUCCACCUAAAGCGUUGCCCUCGUGAUGAUACCAGUUUCAGCGGUAACCCUUGGCAGCAUCGGACAUGAGGAUCACCCAUGUGGA [theeternabot_exclusion_MS2_Theo_A_47] | 64.9 nM | 136 nM | 107 nM |  | 
UGUAUGUGAUUUGAUACCAGACCAGCGGGUGUUGCAUGAGGAUCACCCAUGUAGGUUUGGGUCCCUUGGCAGCAAAUCGCAUACU [SS Theo B #24 Ms18] | 289 nM | 438 nM | 523 nM | 482 nM | 127 nM
UAUAUAUAUAUUGAUACCAGCAGAGAAAACGUUUAUCCUAACAUGAGGAUCACCCAUGUAUGCCCUUGGCAGCGGUAUAUAUAUA [8.D] | 19.7 nM | 29.2 nM | 22.6 nM |  | 
ACAUGAGGAUCACCCAUGUGGCGUCUUGAUACCAGACGAGAAGUAGUCCCUUGGCAGCAAAUACAUGAGGAUCACCCAUGUAGGA [cccmullin] | 16.6 nM | 25.5 nM | 24.3 nM |  | 
GCUGUACCAUGAAGGAGCGCUCACGCAGUUGCGGGUACAUGAGGAUCACCCAUGUUGGGUGAGCAGGUAGGUCGCAUGGUACAGC [SSAB #17] | 227 nM | 193 nM | 215 nM | 237 nM | 230 nM
GGACAACAUGAGGAUCACCCAUGUCCUGAUACCAGUCAGCGCAGUGACCCUUGGCAGCAGACGGAUACGAAAUAACUGAGAGAUA [theeternabot_sameState_MS2_Theo_A_44] | 29.2 nM | 65 nM | 62 nM |  | 
CUGUACAUCUCGGCCGCCACUGCUGACAUGGGAGUCACCCAUGUCCACAUGAGGAUCACCCAUGUCAGGACCGGGAGGUGUGCAG [SSTryp B #25] | 87.4 nM | 272 nM |  |  | 287 nM
AAACAUGAGGAUCACCCAUGUAUGUUAUUACGAGGACCGGUACGGCCGCCACUCGAUAGAGUAGAAGUAAAUUGUAAUUCAUGUU [JR_ExcTryptoA_Sub017] | 19.3 nM | 18.8 nM |  |  | 16.9 nM
GCACCAGGUACGGAUACCAGCUAUAGGCCCAAUGGGCGACAUGAGGAUCACCCAUGUAAUGGCCCUUGGCAGCUGUACCUGGUGC [SSThB NP+V+V2 #11 +-Same Structure] | 61.6 nM | 67.2 nM | 99.8 nM |  | 
AUACACCUCGUCCAGGCAAUCUUUAGUGAUACCAGCUAACUCCGUGGCCCUUGGCAGCACAUGAGGAUCACCCAUGUGCGACAUC [Bioninen] | 10.2 nM | 13.4 nM | 11.6 nM |  | 
AUGCAUAUCAGAAGGAGCGUCUUUAACAUGAGGAUCACCCAUGUAACAUUGAAUUCGAUGAGACAGGUAGGUCGCUGAAUAGUAA [SS-ArgB24] | 27.5 nM | 39.3 nM | 31.2 nM | 33.7 nM | 32.8 nM
CUCCCGUGGUCGGCCGCCACUGGAGGCCUCGCGCGACAUGAGGAUCACCCAUGUUGGCCCGGCGUCAGGACCGGGAUCGCGUGAG [#1 Same State - Tryptophan B Attempt #9 (HarryS)] | 11.8 nM | 10.3 nM | 10.8 nM | 11 nM | 12.1 nM
GGCUAACAUGAGGAUCACCCAUGUAUUGAUACCAGUAUUUGAAAAUACCCUUGGCAGCAAAUGAAGAGCGUAGCAGGGUCGAUUA [theeternabot_sameState_MS2_Theo_A_7] | 10 nM | 17 nM | 12.6 nM |  | 
UAUCCACAUGAGGAUCACCCAUGUUAGGAAGGAGCGGUGAAUGCACCAGGUAGGUCGCCUAGCUGAGGACUGUCGAUGGAUUCGU [Exclusion - Arginine A (Freestyle 18)] | 23.3 nM | 30.8 nM | 26 nM | 23.9 nM | 39.6 nM
UCGGGUUUGCGAAGGAGCGGGUAUGUUUUCUAGUGGAUCCUAACAUGAGGAUCACCCAUGUCCCAGGUAGGUCGCGCGGGUUUGG [12.W] | 183 nM | 291 nM | 100 nM | 102 nM | 168 nM

Source: the supplement of paper PMC9170038
